The values below come from paper doi:10.1101/2021.01.08.425619 (bioRxiv, 2021).

To fix the notation:
B1: Drosophila melanogaster LC8 (residues 1-89), co-expressed with Panx peptides (natural protein)
chain: MSDRKAVIKNADMSEEMQQDAVDCATQALEKYNIEKDIAAYIKKEFDKKYNPTWHCIVGRNFGSYVTHETRHFIYFYLGQVAILLFKSG
B2: recombinant SFiNX consisting of Panx[263-541], Nxf2[541-841], Nxt1, and LC8 (complex)
chain 1: ASSQNESSKERKLRDTELDYVPVRPDEHFIRPIKFSNLIERRPPQVEFNTVNLSKADKRSLAVARAELVLEQIQQKANKEEPPEFHMVDTICKLPVNESFRNQDCFENPSPICNNMNVVYKFNSTPGTRIDLSKWGLETVPEATKRLLRLLGIDVARLKELQSTVKPSQRILKLKKEQLEQGLAPTEEQETATLYKNAATQTERRTATRDAGTQVRLESKLNGAFWQNPHFDPMNLTQHQSNVMLALQEIYQTLPSATMAVKLSRALAPALAIIKGRQP
chain 2: LPSEYVRAVKEVFPQLTTLDGVDLQTNPGQSLQKNFLCDTGAYELVGAFLENYLREFENDEFRHNLYKYYSENSIFTLTCNYNVVQNHQTPKILQRLSKYNRHARNLRNKDYSKASDGVFFGCTYIVEILLQLPRVTHDFHSLQTDVMHYNGKGAVIYVAGLLRDEPPSTRNGHGSKTDIGGVLLGFSRQFVVTFDEANLGLGKRARRLKIANERLHITNPSKTAIRNAFSVNFPDPSERQAEEDSLDVKDHKLLLFQEVTGLISTWVTSIVEEADWDFERALKLFIQKNADHEIPDLAFA
chain 3: […]
chain 4: B1 chain
B3: His6-LC8, subunit of recombinant SFiNX (natural protein)
chain: B1 chain
B4: Panx[263-541], subunit of recombinant SFiNX (domain or fragment)
chain: B2 chain 1
B5: Nxf2[541-841], subunit of recombinant SFiNX (domain or fragment)
chain: B2 chain 2

Where two headings read alike, the source gives them in different places.

Data set [1] concerns the molecule itself. Put plainly: SEC-MALS.
Data set [2] deals with the molecule itself. Put plainly: SEC-MALS. The source holds these as a separate data set. (In general: In gel filtration, larger molecules generally elute earlier.)
Data set [3] has as its target B4. Put plainly: SEC-MALS.
Data set [4] addresses B1. Put plainly: SEC-MALS.
Data set [5] addresses Drosophila melanogaster LC8 (residues 1-89), expressed in isolation for ITC (Drosophila melanogaster, UniProt Q24117 1-89). Put plainly: ITC.
Data set [6] concerns the target B5. Put plainly: SEC-MALS.
In data set [7] the target is Nxt1, subunit of recombinant SFiNX (Drosophila, UniProt Q9V3H8 1-133). Put plainly: SEC-MALS.

B1: the “stoichiometry N” value in the data set “SEC-MALS [1]” was 2.
As to B2, the “stoichiometry N” value in the data set “SEC-MALS [2]” amounted to 2.
For the molecule B3, the binding result in data set [3] is listed as “binds”.
Consider RTATRDAGTQVRLE [Panx peptide residues 467-480 (Panx2), LC8 binding site #2], for which, in data set [4], the “stoichiometry N” value was 2 Panx peptides per one LC8 homodimer. Further, in data set [5], the dissociation constant (Kd) is about 0.14 µM.
As to B4, the binding result in data set [6] is “binds”.
Regarding TLYKNAATQTER [Panx peptide residues 455-466 (Panx1), LC8 binding site #1], the “stoichiometry N” value in data set [4] is 2 Panx peptides per one LC8 homodimer. The same molecule gave a Kd in data set [5] of about 0.075 µM.
Turning to TLYKNAATQTERRTATRDAGTQVRLE [Panx peptide residues 455-480 (Panx1+2), both LC8 binding sites], the “stoichiometry N” value in data set [4] is 2 Panx peptides per two LC8 homodimers.
As to B5, the binding result in data set [7] is given as “binds”.

The stoichiometry N is the number of molecules, sites or subunits per partner or assembly. What is called Kd is the equilibrium constant for the complex coming apart. Higher therefore signals lower affinity.
